Patent US20170183421A1 (Gilead, published 2017)
Several values for one entry are separate records, joined by “and”; a condition that tells them apart may be missing. Equal entries are not always repeated. Where two headings read alike, the source gives them in different places. Each block holds one binder with its values, some of them ahead of it.

What was measured:
Mouse MMP9 [1] = target: T1, Mouse MMP9 (mouse, UniProt P41245 20-730, limits assumed); assay: ELISA
T1 construct: also called murine MMP9; wild-type mouse MMP9

Rat MMP9 [2] = target: T2, Rat MMP9 (rat, UniProt P50282 20-708, limits assumed); assay: ELISA
Human MMP9 [3] = target: T3, Human MMP9 (human, UniProt P14780 20-707); assay: ELISA
T3 construct: also called human matrix metalloproteinase-9; gelatinase-B

Cynomolgus monkey MMP9 [4] = target: T4, Cynomolgus monkey MMP9 (cynomolgus monkey, UniProt A0A2K5UU71 20-706); assay: ELISA
T4 construct: also called cynomolgus MMP9

Human MMP9 [5] = target: T3, Human MMP9; assay: SPR
Mouse MMP9 [6] = target: T1, Mouse MMP9; assay: cell-based or functional assay
Rat MMP9 [7] = target: T2, Rat MMP9; assay: cell-based or functional assay
Human MMP9 [8] = target: T3, Human MMP9; assay: cell-based or functional assay
Cynomolgus monkey MMP9 [9] = target: T4, Cynomolgus monkey MMP9; assay: cell-based or functional assay
Mouse MMP9 [10] = target: T1, Mouse MMP9; assay: ELISA; remark: listed apart in the source
Rat MMP9 [11] = target: T2, Rat MMP9; assay: ELISA; remark: listed apart in the source
Human MMP9 [12] = target: T3, Human MMP9; assay: ELISA; remark: listed apart in the source
Cynomolgus monkey MMP9 [13] = target: T4, Cynomolgus monkey MMP9; assay: ELISA; remark: listed apart in the source
Rat MMP9 [14] = target: T2, Rat MMP9; assay: ELISA; remark: listed apart in the source
Human MMP9 [15] = target: T3, Human MMP9; assay: ELISA; remark: listed apart in the source
Cynomolgus monkey MMP9 [16] = target: T4, Cynomolgus monkey MMP9; assay: ELISA; remark: listed apart in the source
Human MMP9 [17] = target: T3, Human MMP9; assay: cell-based or functional assay; remark: listed apart in the source
Human MMP9 [18] = target: T3, Human MMP9; assay: direct binding and SPR assays

T4 sequence (A0A2K5UU71 entry or part of it): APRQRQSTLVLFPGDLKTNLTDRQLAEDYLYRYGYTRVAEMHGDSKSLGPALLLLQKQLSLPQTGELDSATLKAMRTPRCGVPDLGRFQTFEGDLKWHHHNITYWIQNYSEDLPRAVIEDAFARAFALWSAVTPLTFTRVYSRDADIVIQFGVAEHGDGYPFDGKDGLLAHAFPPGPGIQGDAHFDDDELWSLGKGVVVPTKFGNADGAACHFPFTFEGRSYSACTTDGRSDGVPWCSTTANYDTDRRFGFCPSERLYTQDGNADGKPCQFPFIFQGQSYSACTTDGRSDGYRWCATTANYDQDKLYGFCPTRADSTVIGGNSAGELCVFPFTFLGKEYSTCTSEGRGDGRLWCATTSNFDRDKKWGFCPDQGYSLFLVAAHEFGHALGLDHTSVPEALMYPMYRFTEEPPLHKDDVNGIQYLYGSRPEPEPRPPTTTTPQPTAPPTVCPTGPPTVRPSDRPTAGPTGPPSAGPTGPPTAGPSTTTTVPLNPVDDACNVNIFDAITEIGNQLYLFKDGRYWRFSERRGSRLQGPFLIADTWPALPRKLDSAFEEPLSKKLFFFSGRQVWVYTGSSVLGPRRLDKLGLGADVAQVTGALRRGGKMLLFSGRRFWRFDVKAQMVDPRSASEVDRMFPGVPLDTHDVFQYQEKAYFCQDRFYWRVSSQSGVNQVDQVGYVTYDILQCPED
T2 sequence (P50282 20-708 limits assumed): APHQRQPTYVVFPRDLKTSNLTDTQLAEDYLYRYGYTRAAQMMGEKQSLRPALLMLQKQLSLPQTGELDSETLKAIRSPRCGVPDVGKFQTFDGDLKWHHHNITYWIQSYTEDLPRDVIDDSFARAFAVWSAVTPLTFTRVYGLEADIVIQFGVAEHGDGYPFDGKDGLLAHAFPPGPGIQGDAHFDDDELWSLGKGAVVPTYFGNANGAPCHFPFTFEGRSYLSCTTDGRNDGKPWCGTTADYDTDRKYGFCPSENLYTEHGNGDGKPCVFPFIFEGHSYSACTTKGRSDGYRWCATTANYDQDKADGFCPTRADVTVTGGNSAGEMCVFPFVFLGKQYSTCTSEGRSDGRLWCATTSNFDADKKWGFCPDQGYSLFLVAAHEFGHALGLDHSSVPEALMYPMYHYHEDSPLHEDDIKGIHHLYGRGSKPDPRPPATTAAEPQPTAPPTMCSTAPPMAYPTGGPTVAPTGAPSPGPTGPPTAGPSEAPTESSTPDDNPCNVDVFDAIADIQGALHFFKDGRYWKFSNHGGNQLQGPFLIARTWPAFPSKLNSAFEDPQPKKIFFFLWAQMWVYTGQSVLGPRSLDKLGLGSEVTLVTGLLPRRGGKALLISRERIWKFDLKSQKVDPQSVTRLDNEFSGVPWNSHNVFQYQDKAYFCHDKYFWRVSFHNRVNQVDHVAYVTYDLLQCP
T1 sequence (P41245 20-730 limits assumed): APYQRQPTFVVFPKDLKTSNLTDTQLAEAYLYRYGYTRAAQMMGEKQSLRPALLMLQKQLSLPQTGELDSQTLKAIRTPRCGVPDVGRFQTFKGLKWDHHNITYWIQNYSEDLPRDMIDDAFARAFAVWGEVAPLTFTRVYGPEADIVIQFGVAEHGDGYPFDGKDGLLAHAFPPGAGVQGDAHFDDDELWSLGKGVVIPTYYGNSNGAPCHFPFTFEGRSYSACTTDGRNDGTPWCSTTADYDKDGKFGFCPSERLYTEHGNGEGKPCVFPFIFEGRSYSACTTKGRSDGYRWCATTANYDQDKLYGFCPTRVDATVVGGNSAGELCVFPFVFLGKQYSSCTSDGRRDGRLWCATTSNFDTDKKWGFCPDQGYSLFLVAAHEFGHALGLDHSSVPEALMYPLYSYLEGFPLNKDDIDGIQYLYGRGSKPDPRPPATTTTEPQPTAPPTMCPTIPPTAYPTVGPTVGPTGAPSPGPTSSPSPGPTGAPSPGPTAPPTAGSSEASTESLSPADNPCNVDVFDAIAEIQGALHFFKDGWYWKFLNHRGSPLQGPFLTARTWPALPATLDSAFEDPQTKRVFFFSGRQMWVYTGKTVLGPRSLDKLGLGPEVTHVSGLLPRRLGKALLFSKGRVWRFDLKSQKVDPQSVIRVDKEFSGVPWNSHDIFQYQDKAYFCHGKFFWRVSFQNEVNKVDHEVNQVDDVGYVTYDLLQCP
T3 sequence (P14780 20-707 Q279R/R574P): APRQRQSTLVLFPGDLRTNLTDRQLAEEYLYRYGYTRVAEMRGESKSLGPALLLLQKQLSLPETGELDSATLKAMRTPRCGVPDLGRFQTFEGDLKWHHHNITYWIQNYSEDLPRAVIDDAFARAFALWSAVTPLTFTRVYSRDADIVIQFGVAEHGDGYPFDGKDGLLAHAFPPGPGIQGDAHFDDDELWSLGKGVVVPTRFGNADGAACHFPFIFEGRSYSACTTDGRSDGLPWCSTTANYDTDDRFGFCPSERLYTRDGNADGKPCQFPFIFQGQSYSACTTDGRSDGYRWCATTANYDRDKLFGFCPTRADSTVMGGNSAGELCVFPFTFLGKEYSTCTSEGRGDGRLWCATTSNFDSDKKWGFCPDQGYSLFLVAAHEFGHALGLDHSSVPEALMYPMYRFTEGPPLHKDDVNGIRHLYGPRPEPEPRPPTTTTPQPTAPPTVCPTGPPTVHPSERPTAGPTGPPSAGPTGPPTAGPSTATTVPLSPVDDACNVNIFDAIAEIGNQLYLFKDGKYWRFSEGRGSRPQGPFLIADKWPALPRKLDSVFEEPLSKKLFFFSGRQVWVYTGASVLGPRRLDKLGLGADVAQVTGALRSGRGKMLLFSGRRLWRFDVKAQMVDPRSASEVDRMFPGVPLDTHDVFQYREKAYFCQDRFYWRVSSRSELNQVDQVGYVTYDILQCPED

- Kd (Mouse MMP9 [1]): > 100000 pM
- Kd (Rat MMP9 [2]): 332 pM
- Kd (Human MMP9 [3]): 133 pM
- Kd (Cynomolgus monkey MMP9 [4]): 145 pM
- Kd (Human MMP9 [5]): 0.4 pM
- Activity Assay, Mouse MMP9 IC50 (Mouse MMP9 [6]): > 100000 pM
- Activity Assay, Rat MMP9 IC50 (Rat MMP9 [7]): 2780 pM
- Activity Assay, Human MMP9 IC50 (Human MMP9 [8]): 569 pM
- Activity Assay, Cynomolgus monkey MMP9 IC50 (Cynomolgus monkey MMP9 [9]): 189 pM
- Kd (Mouse MMP9 [10]): > 100000 pM
- Kd (Rat MMP9 [11]): 332 pM
- Kd (Human MMP9 [12]): 133 pM
- Kd (Cynomolgus monkey MMP9 [13]): 145 pM
- Kd (Rat MMP9 [14]): < 400 pM
- Kd (Human MMP9 [15]): < 400 pM
- Kd (Cynomolgus monkey MMP9 [16]): < 400 pM
B1: AB0041 (antibody, mouse IgG2b, kappa, V domains shown)
VH: QVQLKESGPGLVAPSQSLSITCTVSGFSLLSYGVHWVRQPPGKGLEWLGVIWTGGTTNYNSALMSRLSISKDDSKSQVFLKMNSLQTDDTAIYYCARYYYGMDYWGQGTSVTVSS
VL: DIVMTQSHKFMSTSVGDRVSITCKASQDVRNTVAWYQQKTGQSPKLLIYSSSYRNTGVPDRFTGSGSGTDFTFTISSVQAEDLAVYFCQQHYITPYTFGGGTKLEIKR
notes: Mouse IgG2b/kappa from hybridoma; derived by aligning the variable region entries to the full chains; also called mouse monoclonal anti-MMP9 antibody (AB0041)

- IC50, MMP9 enzymatic assay under steady-state conditions (Human MMP9 [17]): 0.148 nM to 0.161 nM (2×) and 0.158 nM
- Kd (Mouse MMP9 [1]): > 100000 pM
- Kd (Rat MMP9 [2]): 311 pM
- Kd (Human MMP9 [3]): 168 pM
- Kd (Cynomolgus monkey MMP9 [4]): 82 pM
- Kd (Human MMP9 [5]): 8.8 pM
- Activity Assay, Mouse MMP9 IC50 (Mouse MMP9 [6]): > 100000 pM
- Activity Assay, Rat MMP9 IC50 (Rat MMP9 [7]): 8230 pM
- Activity Assay, Human MMP9 IC50 (Human MMP9 [8]): 691 pM
- Activity Assay, Cynomolgus monkey MMP9 IC50 (Cynomolgus monkey MMP9 [9]): 194 pM
- Kd (Rat MMP9 [11]): 311 pM
- Kd (Human MMP9 [12]): 168 pM
- Kd (Cynomolgus monkey MMP9 [13]): 82 pM
- Kd (Human MMP9 [18]): ~1 pM
- Kd (Rat MMP9 [14]): < 400 pM
- Kd (Human MMP9 [15]): < 400 pM
- Kd (Cynomolgus monkey MMP9 [16]): < 400 pM
B2: AB0045 (antibody, human IgG4 S228P, kappa, V domains shown)
VH: QVQLQESGPGLVKPSETLSLTCTVSGFSLLSYGVHWVRQPPGKGLEWLGVIWTGGTTNYNSALMSRFTISKDDSKNTVYLKMNSLKTEDTAIYYCARYYYGMDYWGQGTLVTVSS
VL: DIQMTQSPSSLSASVGDRVTITCKASQDVRNTVAWYQQKPGKAPKLLIYSSSYRNTGVPDRFSGSGSGTDFTLTISSLQAEDVAVYYCQQHYITPYTFGGGTKVEIKR
notes: Humanized AB0041, modified IgG4 (S241P); also called humanized variant anti-MMP9 antibody; VH3/Vk4

- Kd (Mouse MMP9 [1]): 218 pM
- Kd (Human MMP9 [3]): > 100000 pM
- Activity Assay, Mouse MMP9 IC50 (Mouse MMP9 [6]): 352 pM
- Activity Assay, Rat MMP9 IC50 (Rat MMP9 [7]): > 100000 pM
- Activity Assay, Human MMP9 IC50 (Human MMP9 [8]): > 100000 pM
- Activity Assay, Cynomolgus monkey MMP9 IC50 (Cynomolgus monkey MMP9 [9]): > 100000 pM
B3: AB0046 (antibody, mouse IgG1, kappa, V domains shown)
VH: QVQLQQPGSVLVRPGASVKLSCTASGYTFTSYWMNWVKQRPGQGLEWIGEIYPISGRTNYNEKFKVKATLTVDTSSSTAYMDLNSLTSEDSAVYYCARSRANWDDYWGQGTTLTVSS
VL: DIQMTQTTSSLSASLGDRVTISCSASQGISNYLNWYQQKPDGTFKLLIYYTSILHSGVPSRFSGSGSGTDYSLTISNLEPEDIATYYCQQYGWLPRTFGGGTKLEIKR
notes: Mouse IgG1/kappa raised in MMP9-knockout mice against mouse MMP9; also called surrogate mouse antibody AB0046
